Experimental data reported in publication PMC4788467 (Leukemia, 2015).
Substitutions are numbered along the chain they refer to. Names and notes keep the numbering of the source. Blank lines part the entries; values can stand above or below the binder they belong to.

Key:
[1] = target: biotinylated soluble HLA-A2/WT1_(126) (…) complex (Homo sapiens, HLA-A*02:01, biotin (the complex is biotinylated; site not stated)); assay: SPR
[2] = target: HLA-A2/WT1 187-195 (…) monomer (Homo sapiens, HLA-A*02:01, biotin (the complex is biotinylated; site not stated)); assay: ELISA
[3] = target: HLA-A2/WT1 235-243 (…) monomer (Homo sapiens, HLA-A*02:01, biotin (the complex is biotinylated; site not stated)); assay: ELISA
[4] = target: T1, WT1 126-134 (RMFPNAPYL) peptide alone (human); assay: ELISA
T1 chain: RMFPNAPYL

B2: S3.3 scFv (scFv, V domains shown)
VH: EVQLLESGGGLVQPGGSLRLSCAASGFTFSSYAMSWVRQAPGKGLEWVSLIDPWGQETLYADSVKGRFTISRDNSKNTLYLQMNSLRAEDTAVYYCAKLTGRFDYWGQGTLVTVSS
VL: NIQMTQSPSSLSASVGDRVTITCRASQSISSYLNWYQQKPGKAPKLLIYSASLLQSGVPSRFSGNGSGTDFTLTISSLQPEDFATYYCQQGPGTPNTFGQGTKVEIK
- koff [1]: 5.35e-05 s⁻¹
- kon [1]: 22000 M⁻¹ s⁻¹

B5: S3.1 scFv (scFv, V domains shown)
VH: B2 VH with R87G
VL: B2 VL with N1D, L53Q, N65S, S77N
- Kd [1]: 12.9 nM
- koff [1]: 0.00191 s⁻¹
- kon [1]: 148000 M⁻¹ s⁻¹

B6: Q1L scFv (scFv, V domains shown)
VH: B2 VH
VL: B2 VL with N1D, L53Q, N65S
- Kd [1]: 58.3 nM
- kon [1]: 94300 M⁻¹ s⁻¹

Now from value to binder:

- Kd [1]: 14.1 nM
- koff [1]: 0.00177 s⁻¹
- kon [1]: 126000 M⁻¹ s⁻¹
B1: S3.6 scFv (scFv, V domains shown)
VH: B2 VH
VL: B2 VL with N1D, S31N, L53Q, N65S, D70V

- binding result [2]: no binding
- binding result [3]: no binding
- Kd [1]: 0.002 nM
- koff [1]: 1.15e-06 s⁻¹
- kon [1]: 484000 M⁻¹ s⁻¹
- binding result [4]: no binding
B3: Q2L scFv-Fc (Fc fusion)
VH: B2 VH
VL: B2 VL with N1D, N65S

- binding result [2]: no binding
- binding result [3]: no binding
- Kd [1]: 3.08 nM
- koff [1]: 0.000355 s⁻¹
- kon [1]: 115000 M⁻¹ s⁻¹
- binding result [4]: no binding
B4: Q2L scFv (scFv, V domains shown)
VH: B2 VH
VL: B2 VL with N1D, N65S
